Test [1] deals with T1, human ACVR2A (human, UniProt P27037 20-135, limits assumed).
T1 construct: coated antigen of the initial ELISA; also called activin receptor, type II A
Description: ELISA. In short, it runs like this:
(§1)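 mAb binding by ELISA; antigens: hu ACVR2A, mu ACVR2A; pos ctrl biotinylated goat anti-hu kappa LC; neg ctrl hu Fc.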

The target of test [2] is T2, mouse ACVR2A (mouse, UniProt P27038 20-135, limits assumed).
T2 construct: coated antigen of the initial ELISA
The test can be described thus: ELISA. The procedure, abridged:
as §1

The target of test [3] is T3, biotinylated goat anti-human kappa light chain.
T3 construct: positive control of the ELISA
The test can be described thus: ELISA, positive control. In short, it runs like this:
as §1
Also: test concentration or dose not given here.

T1 sequence (P27037 20-135 limits assumed): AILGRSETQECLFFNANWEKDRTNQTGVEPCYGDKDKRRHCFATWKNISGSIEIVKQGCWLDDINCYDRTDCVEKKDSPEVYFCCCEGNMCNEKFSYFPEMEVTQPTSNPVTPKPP
T2 sequence (P27038 20-135 limits assumed): as the sequence (P27037 20-135 limits assumed) above, with K20R, V73I counted along it

B1: 373_C07 (antibody, V domains shown)
VH: EVQLLESGGGLVQPGGSLRLSCAASGFTFDSYSMNWVRQAPGKGLEWVAGINYNSGYTSYADSVKGRFTISRDNSKNTLYLQMNSLRAEDTAVYYCARGANWHDTHLDYWGQGTLVTVSS
VL: DIQMTQSPSSLSASVGDRVTITCRASQSILTYLNWYQQKPGKAPKLVIYAATSRASGVPSRFSGSGSGTDFTLTISSLQPEDFATYYCQQSYETPLTFGGGTKVEIK
notes: Group III
In the case of B1, the optical density in test [1] is 3.57 OD; in test [2], 3.58 OD; in test [3], 3.3 OD.

B2: 373_H09 (antibody, V domains shown)
VH: EVQLLESGGGLVQPGGSLRLSCAASGFTFSSYGMNWVRQAPGKGLEWVASINYNSGYKSYADSVKGRFTISRDNSKNTLYLQMNSLRAEDTAVYYCARGANWHDTHLDYWGQGTLVTVSS
VL: DIQMTQSPSSLSASVGDRVTITCRASQSIITYLNWYQQKPGKAPKLVIYAATSRASGVPSRFSGSGSGTDFTLTISSLQPEDFATYYCQQSDDSPLTFGGGTKVEIK
notes: Group III
As to B2, the optical density in test [1] was 0.93 OD; in test [2], 1.35 OD; in test [3], 3.08 OD.

B3: 374_B05 (antibody, V domains shown)
VH: EVQLLESGGGLVQPGGSLRLSCAASGFTFDSYSMNWVRQAPGKGLEWVSGINYNSGYTSYADSVKGRFTISRDNSKNTLYLQMNSLRAEDTAVYYCARGANWHDTALDYWGQGTLVTVSS
VL: DIQMTQSPSSLSASVGDRVTITCRASQSIVSYLNWYQQKPGKAPKLLIYAATSRHSGVPSRFSGSGSGTDFTLTISSLQPEDFATYYCQQSYESPLTFGGGTKVEIK
notes: Group III
For B3, the results for the optical density in test [1], in test [2] and in test [3] were 3.68 OD, 3.65 OD and 3.16 OD, respectively.

B4: 373_E10 (antibody, V domains shown)
VH: EVQLLESGGGLVQPGGSLRLSCAASGFTFSDYSMNWVRQAPGKGLEWVSGINYNGGYTSYADSVKGRFTISRDNSKNTLYLQMNSLRAEDTAVYYCARGANWHDTALDYWGQGTLVTVSS
VL: DIQMTQSPSSLSASVGDRVTITCRASQSILTYVNWYQQKPGKAPKLVIYAATSRHSGVPSRFSGSGSGTDFTLTISSLQPEDFATYYCQQSYETPLTFGGGTKVEIK
notes: Group III
With B4, the optical density was determined as 3.72 OD in test [1], 3.64 OD in test [2] and 3.2 OD in test [3].

B5: 373_H03 (antibody, V domains shown)
VH: EVQLLESGGGLVQPGGSLRLSCAASGFTFSSYSMNWVRQAPGKGLEWVSGINYNSGYKSYADSVKGRFTISRDNSKNTLYLQMNSLRAEDTAVYYCARGANWHDTALDYWGQGTLVTVSS
VL: DIQMTQSPSSLSASVGDRVTITCRASQSILSYLNWYQQKPGKAPKLLIYATTSRASGVPSRFSGSGSGTDFTLTISSLQPEDFATYYCQQSYENPLTFGGGTKVEIK
notes: Group III
As to B5, the optical density worked out at 3.27 OD in test [1], 3.29 OD in test [2] and 3.22 OD in test [3].

B6: 373_F12 (antibody, V domains shown)
VH: EVQLLESGGGLVQPGGSLRLSCAASGFTFSSYSMNWVRQAPGKGLEWVSNINYNGGYTGYADSVKGRFTISRDNSKNTLYLQMNSLRAEDTAVYYCARGANWHDTALDYWGQGTLVTVSS
VL: DIQMTQSPSSLSASVGDRVTITCRASQSISTYLNWYQQKPGKAPKLVIYAATSRASGVPSRFSGSGSGTDFTLTISSLQPEDFATYYCQQSYETPLTFGGGTKVEIK
notes: Group III
Take B6: the optical density in test [1] worked out at 3.25 OD; in test [2] it was 3.22 OD; in test [3] it was 3.06 OD.

B7: 373_G08 (antibody, V domains shown)
VH: EVQLLESGGGLVQPGGSLRLSCAASGFTFDSYSMNWVRQAPGKGLEWVSNINYNGGYTSYADSVKGRFTISRDNSKNTLYLQMNSLRAEDTAVYYCARGANWHDTALDYWGQGTLVTVSS
VL: DIQMTQSPSSLSASVGDRVTITCRASQSILTYLNWYQQKPGKAPKLLIYAATSLASGVPSRFSGSGSGTDFTLTISSLQPEDFATYYCQQSYDSPLTFGGGTKVEIK
notes: Group III
Turning to B7, the optical density in test [1] stood at 3.65 OD; in test [2], 3.67 OD; in test [3], 3.28 OD.

B8: 373_C10 (antibody, V domains shown)
VH: EVQLLESGGGLVQPGGSLRLSCAASGFTFSSYSMNWVRQAPGKGLEWVAGINYNGGYTSYADSVKGRFTISRDNSKNTLYLQMNSLRAEDTAVYYCARGANWHDTALDYWGQGTLVTVSS
VL: DIQMTQSPSSLSASVGDRVTITCRASQSILTYVNWYQQKPGKAPKLLIYAATSRASGVPSRFSGSGSGTDFTLTISSLQPEDFATYYCQQSYDNPLTFGGGTKVEIK
notes: Group III
Consider B8, for which the optical density in test [1] was found to be 3.65 OD; in test [2], 3.65 OD; in test [3] it was 3.23 OD.

B9: 373_D03 (antibody, V domains shown)
VH: EVQLLESGGGLVQPGGSLRLSCAASGFTFSSYSMNWVRQAPGKGLEWVSGINYNGGYTSYADSVKGRFTISRDNSKNTLYLQMNSLRAEDTAVYYCARGANWHDTALDYWGQGTLVTVSS
VL: DIQMTQSPSSLSASVGDRVTITCRASQSIVSYLNWYQQKPGKAPKLLIYAATSLASGVPSRFSGSGSGTDFTLTISSLQPEDFATYYCQQSYDTPLTFGGGTKVEIK
notes: Group III
For the molecule B9, the figures for the optical density in test [1], in test [2] and in test [3] were 3.75 OD, 3.69 OD and 3.18 OD, respectively.

B10: 374_B08 (antibody, V domains shown)
VH: EVQLLESGGGLVQPGGSLRLSCAASGFTFDSYSMNWVRQAPGKGLEWVAGINYNGGYTSYADSVKGRFTISRDNSKNTLYLQMNSLRAEDTAVYYCARGANWHDTALDYWGQGTLVTVSS
VL: DIQMTQSPSSLSASVGDRVTITCRASQSIVSYVNWYQQKPGKAPKLLIYAATSRHSGVPSRFSGSGSGTDFTLTISSLQPEDFATYYCQQSYELPLTFGGGTKVEIK
notes: Group III
In the case of B10, the figures for the optical density in test [1], in test [2] and in test [3] were 3.6 OD, 3.63 OD and 3.12 OD, respectively.

B11: 374_B03 (antibody, V domains shown)
VH: EVQLLESGGGLVQPGGSLRLSCAASGFTFDSYSMNWVRQAPGKGLEWVSGINYNGGYTSYADSVKGRFTISRDNSKNTLYLQMNSLRAEDTAVYYCARGANWHDTALDYWGQGTLVTVSS
VL: DIQMTQSPSSLSASVGDRVTITCRASQSILTYLNWYQQKPGKAPKLVIYAATSRASGVPSRFSGSGSGTDFTLTISSLQPEDFATYYCQQSYDSPLTFGGGTKVEIK
notes: Group III
As for B11, the values for the optical density in test [1], in test [2] and in test [3] were 3.69 OD, 3.7 OD and 3.07 OD, respectively.

B12: 373_F11 (antibody, V domains shown)
VH: EVQLLESGGGLVQPGGSLRLSCAASGFTFDSYGMHWVRQAPGKGLEWVSGINYNSGYTSYADSVKGRFTISRDNSKNTLYLQMNSLRAEDTAVYYCARGANWHDTHLDYWGQGTLVTVSS
VL: DIQMTQSPSSLSASVGDRVTITCRASQSIVSYVNWYQQKPGKAPKLLIYAATSRASGVPSRFSGSGSGTDFTLTISSLQPEDFATYYCQQSYNLPLTFGGGTKVEIK
notes: Group III
Consider B12, for which the optical density is 3.35 OD in test [1], 3.46 OD in test [2] and 3.32 OD in test [3].

B13: 374_A09 (antibody, V domains shown)
VH: EVQLLESGGGLVQPGGSLRLSCAASGFTFSSYSMNWVRQAPGKGLEWVSSINYNGGYKGYADSVKGRFTISRDNSKNTLYLQMNSLRAEDTAVYYCARGANWHDTHLDYWGQGTLVTVSS
VL: DIQMTQSPSSLSASVGDRVTITCRASQSILTYVNWYQQKPGKAPKLLIYAATSLASGVPSRFSGSGSGTDFTLTISSLQPEDFATYYCQQSYDSPLTFGGGTKVEIK
notes: Group III
Turning to B13, the optical density in test [1] turned out to be 3.58 OD; in test [2], 3.64 OD; in test [3], 2.97 OD.

B14: 374_A06 (antibody, V domains shown)
VH: EVQLLESGGGLVQPGGSLRLSCAASGFTFSSYSMNWVRQAPGKGLEWVSSINYNSGYTSYADSVKGRFTISRDNSKNTLYLQMNSLRAEDTAVYYCARGANWHDTHLDYWGQGTLVTVSS
VL: DIQMTQSPSSLSASVGDRVTITCRASQSILSYLNWYQQKPGKAPKLVIYAATSRASGVPSRFSGSGSGTDFTLTISSLQPEDFATYYCQQSYDSPLTFGGGTKVEIK
notes: Group III
As to B14, the optical density in test [1] came to 3.77 OD; in test [2], 3.75 OD; in test [3], 3 OD.

B15: 373_F08 (antibody, V domains shown)
VH: EVQLLESGGGLVQPGGSLRLSCAASGFTFSSYSMNWVRQAPGKGLEWVSGINYNGGYTSYADSVKGRFTISRDNSKNTLYLQMNSLRAEDTAVYYCARGANWHDTALDYWGQGTLVTVSS
VL: DIQMTQSPSSLSASVGDRVTITCRASQSILTYLNWYQQKPGKAPKLLIYAATSRASGVPSRFSGSGSGTDFTLTISSLQPEDFATYYCQQSYDTPLTFGGGTKVEIK
notes: Group III
With B15, the figures for the optical density in test [1], in test [2] and in test [3] were 3.76 OD, 3.7 OD and 3.21 OD, respectively.

B16: 373_H07 (antibody, V domains shown)
VH: EVQLLESGGGLVQPGGSLRLSCAASGFTFSSYSMNWVRQAPGKGLEWVAGINYNGGYTSYADSVKGRFTISRDNSKNTLYLQMNSLRAEDTAVYYCARGANWHDTHLDYWGQGTLVTVSS
VL: DIQMTQSPSSLSASVGDRVTITCRASQSIVTYLNWYQQKPGKAPKLLIYAASSLQSGVPSRFSGSGSGTDFTLTISSLQPEDFATYYCQQSYDSPLTFGGGTKVEIK
notes: Group III
Consider B16, for which the results for the optical density in test [1], in test [2] and in test [3] were 3.25 OD, 3.27 OD and 3.23 OD, respectively.

B17: 373_D12 (antibody, V domains shown)
VH: EVQLLESGGGLVQPGGSLRLSCAASGFTFDSYSMNWVRQAPGKGLEWVSSINYNSGYKGYADSVKGRFTISRDNSKNTLYLQMNSLRAEDTAVYYCARGANWHDTHLDYWGQGTLVTVSS
VL: DIQMTQSPSSLSASVGDRVTITCRASQSILSYVNWYQQKPGKAPKLLIYAATSRASGVPSRFSGSGSGTDFTLTISSLQPEDFATYYCQQSYSLPLTFGGGTKVEIK
notes: Group III
Turning to B17, the optical density in test [1] came out at 3.4 OD; in test [2], 3.21 OD; in test [3], 3.21 OD.

Values taken from patent US20210380703A1 (RIGEL PHARMACEUTICALS, published 2021).
